Paper PMC4686814 (Nature communications, 2015)
Values joined by “and” are separate entries in the source; they are usually repeats but may differ in a detail not shown here. Equal entries are not always repeated.

T1: hVPS4B E235Q (catalytic mutant of human VPS4B) (human), O75351
T1 chain: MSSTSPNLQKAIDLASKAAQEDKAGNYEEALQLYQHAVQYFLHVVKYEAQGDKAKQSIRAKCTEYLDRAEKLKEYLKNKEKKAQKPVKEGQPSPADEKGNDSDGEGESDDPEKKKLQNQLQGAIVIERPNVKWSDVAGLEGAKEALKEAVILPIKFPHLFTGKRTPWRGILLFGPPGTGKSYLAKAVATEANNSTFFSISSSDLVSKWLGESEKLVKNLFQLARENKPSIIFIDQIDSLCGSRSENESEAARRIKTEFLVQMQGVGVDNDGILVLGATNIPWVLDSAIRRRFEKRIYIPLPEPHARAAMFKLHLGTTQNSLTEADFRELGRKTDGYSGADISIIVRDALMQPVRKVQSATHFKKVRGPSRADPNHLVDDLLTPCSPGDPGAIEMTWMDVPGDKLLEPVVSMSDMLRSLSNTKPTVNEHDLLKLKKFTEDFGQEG


Experiments:
hVPS4B Phe160Ala (human) = hVPS4B Phe160Ala (human) (UniProt O75351)
hVPS4B Met350Ala (human) = hVPS4B Met350Ala (human) (UniProt O75351)
[1] = molecular target: T1, hVPS4B E235Q (catalytic mutant of human …); test: SEC; Superose 6; hVPS4B E235Q and mutants of it at 100 µM with 1 mM ATP and 5 mM MgCl2; settings: remark: other sources report otherwise
[2] = molecular target: the molecule itself; test: SEC-SAXS; online SEC (Superose 6 10/300 GL) in 50 mM Tris pH 8.8, 50 mM NaCl; 500 µl at 220 µM injected; BM29 at the ESRF
[3] = molecular target: the molecule itself; test: SEC; Superose 6; N-terminally His-tagged full length MsVps4 and mutants at 70 µM, a concentration that induces dodecamer formation; no nucleotide
[4] = molecular target: the molecule itself; test: as above; remark: listed apart in the source
[5] = molecular target: the molecule itself; test: SEC; Superose 6; MsVps4ΔMIT at 200 µM (Fig. 1b) and at a series of concentrations up to 0.5 mM (Supplementary Fig. 2); no nucleotide

Row | Binder | stoichiometry N [3] | stoichiometry N [4] | also measured
1 | hVPS4B Phe160Ala (enzyme) MSSTSPNLQKAIDLASKAAQEDKAGNYEEALQLYQHAVQYFLHVVKYEAQGDKAKQSIRAKCTEYLDRAEKLKEYLKNKEKKAQKPVKEGQPSPADEKGNDSDGEGESDDPEKKKLQNQLQGAIVIERPNVKWSDVAGLEGAKEALKEAVILPIKFPHLATGKRTPWRGILLFGPPGTGKSYLAKAVATEANNSTFFSISSSDLVSKWLGESEKLVKNLFQLARENKPSIIFIDEIDSLCGSRSENESEAARRIKTEFLVQMQGVGVDNDGILVLGATNIPWVLDSAIRRRFEKRIYIPLPEPHARAAMFKLHLGTTQNSLTEADFRELGRKTDGYSGADISIIVRDALMQPVRKVQSATHFKKVRGPSRADPNHLVDDLLTPCSPGDPGAIEMTWMDVPGDKLLEPVVSMSDMLRSLSNTKPTVNEHDLLKLKKFTEDFGQEG |  |  | ATPase activity at 37°C with ATP/Mg, percent of wild-type hVPS4B (hVPS4B Phe160Ala (human)): 0%
2 | hVPS4B Met350Ala (enzyme) MSSTSPNLQKAIDLASKAAQEDKAGNYEEALQLYQHAVQYFLHVVKYEAQGDKAKQSIRAKCTEYLDRAEKLKEYLKNKEKKAQKPVKEGQPSPADEKGNDSDGEGESDDPEKKKLQNQLQGAIVIERPNVKWSDVAGLEGAKEALKEAVILPIKFPHLFTGKRTPWRGILLFGPPGTGKSYLAKAVATEANNSTFFSISSSDLVSKWLGESEKLVKNLFQLARENKPSIIFIDEIDSLCGSRSENESEAARRIKTEFLVQMQGVGVDNDGILVLGATNIPWVLDSAIRRRFEKRIYIPLPEPHARAAMFKLHLGTTQNSLTEADFRELGRKTDGYSGADISIIVRDALAQPVRKVQSATHFKKVRGPSRADPNHLVDDLLTPCSPGDPGAIEMTWMDVPGDKLLEPVVSMSDMLRSLSNTKPTVNEHDLLKLKKFTEDFGQEG |  |  | ATPase activity at 37°C with ATP/Mg, percent of wild-type hVPS4B (hVPS4B Met350Ala (human)): 0%
3 | hVPS4B E235Q (catalytic mutant of human VPS4B), O75351 1-444 (enzyme) MSSTSPNLQKAIDLASKAAQEDKAGNYEEALQLYQHAVQYFLHVVKYEAQGDKAKQSIRAKCTEYLDRAEKLKEYLKNKEKKAQKPVKEGQPSPADEKGNDSDGEGESDDPEKKKLQNQLQGAIVIERPNVKWSDVAGLEGAKEALKEAVILPIKFPHLFTGKRTPWRGILLFGPPGTGKSYLAKAVATEANNSTFFSISSSDLVSKWLGESEKLVKNLFQLARENKPSIIFIDQIDSLCGSRSENESEAARRIKTEFLVQMQGVGVDNDGILVLGATNIPWVLDSAIRRRFEKRIYIPLPEPHARAAMFKLHLGTTQNSLTEADFRELGRKTDGYSGADISIIVRDALMQPVRKVQSATHFKKVRGPSRADPNHLVDDLLTPCSPGDPGAIEMTWMDVPGDKLLEPVVSMSDMLRSLSNTKPTVNEHDLLKLKKFTEDFGQEG |  |  | stoichiometry N [1]: 6
4 | MsVPS4 M318A, full length, His tag cleaved (enzyme, Metallosphera sedula, UniProt A4YHC5 1-369, looked up) MSAQVMLEEMARKYAIAAVRADKEGRREDAINNYKKAIEVLTQIVTLYPDMVARNAYEQMINEYKKRLETLNQMVPEGGEETEKAEEDIVMKEKPKVTLNEIVGLEDVKEALKEAVVYPSKRPDLFPLGWPRGILLYGPPGCGKTMIAAAVANELDSEFIHVDAASIMSKWLGEAEKNVAKIFKTARELSKKENKPAIIFIDELDALLASYTSEVGGEARVRNQFLKEMDGLADKNEISKVYVIGATNKPWRLDEPFLRRFQKRIYITLPDKAHRLELLKHYSSKVKLDPNVNLEELAELTDGYTASDIRDIVQSAHARVVKEMFEKNLQEPRAINMDDFREVLKVRKPSVNQDMLKAYAAWHEKFKAL |  |  | stoichiometry N [2]: 6
5 | MsVps4 Met318Ala, full length, N-terminally His-tagged (enzyme, Metallosphera sedula, UniProt A4YHC5 1-369, looked up) MSAQVMLEEMARKYAIAAVRADKEGRREDAINNYKKAIEVLTQIVTLYPDMVARNAYEQMINEYKKRLETLNQMVPEGGEETEKAEEDIVMKEKPKVTLNEIVGLEDVKEALKEAVVYPSKRPDLFPLGWPRGILLYGPPGCGKTMIAAAVANELDSEFIHVDAASIMSKWLGEAEKNVAKIFKTARELSKKENKPAIIFIDELDALLASYTSEVGGEARVRNQFLKEMDGLADKNEISKVYVIGATNKPWRLDEPFLRRFQKRIYITLPDKAHRLELLKHYSSKVKLDPNVNLEELAELTDGYTASDIRDIVQSAHARVVKEMFEKNLQEPRAINMDDFREVLKVRKPSVNQDMLKAYAAWHEKFKAL | 2 | 6 | 
6 | MsVps4 Ser169Ala, full length, N-terminally His-tagged (enzyme, Metallosphera sedula, UniProt A4YHC5 1-369, looked up) MSAQVMLEEMARKYAIAAVRADKEGRREDAINNYKKAIEVLTQIVTLYPDMVARNAYEQMINEYKKRLETLNQMVPEGGEETEKAEEDIVMKEKPKVTLNEIVGLEDVKEALKEAVVYPSKRPDLFPLGWPRGILLYGPPGCGKTMIAAAVANELDSEFIHVDAASIMAKWLGEAEKNVAKIFKTARELSKKENKPAIIFIDELDALLASYTSEVGGEARVRNQFLKEMDGLADKNEISKVYVIGATNKPWRLDEPFLRRFQKRIYITLPDKAHRLELLKHYSSKVKLDPNVNLEELAELTDGYTASDIRDIVQSAHMRVVKEMFEKNLQEPRAINMDDFREVLKVRKPSVNQDMLKAYAAWHEKFKAL | 6 | 12 | 
7 | MsVps4 Arg259Ala Arg260Ala, full length, N-terminally His-tagged (enzyme, Metallosphera sedula, UniProt A4YHC5 1-369, looked up) MSAQVMLEEMARKYAIAAVRADKEGRREDAINNYKKAIEVLTQIVTLYPDMVARNAYEQMINEYKKRLETLNQMVPEGGEETEKAEEDIVMKEKPKVTLNEIVGLEDVKEALKEAVVYPSKRPDLFPLGWPRGILLYGPPGCGKTMIAAAVANELDSEFIHVDAASIMSKWLGEAEKNVAKIFKTARELSKKENKPAIIFIDELDALLASYTSEVGGEARVRNQFLKEMDGLADKNEISKVYVIGATNKPWRLDEPFLAAFQKRIYITLPDKAHRLELLKHYSSKVKLDPNVNLEELAELTDGYTASDIRDIVQSAHMRVVKEMFEKNLQEPRAINMDDFREVLKVRKPSVNQDMLKAYAAWHEKFKAL | 2 | 6 | 
8 | MsVps4 Glu214Tyr, full length, N-terminally His-tagged (enzyme, Metallosphera sedula, UniProt A4YHC5 1-369, looked up) MSAQVMLEEMARKYAIAAVRADKEGRREDAINNYKKAIEVLTQIVTLYPDMVARNAYEQMINEYKKRLETLNQMVPEGGEETEKAEEDIVMKEKPKVTLNEIVGLEDVKEALKEAVVYPSKRPDLFPLGWPRGILLYGPPGCGKTMIAAAVANELDSEFIHVDAASIMSKWLGEAEKNVAKIFKTARELSKKENKPAIIFIDELDALLASYTSYVGGEARVRNQFLKEMDGLADKNEISKVYVIGATNKPWRLDEPFLRRFQKRIYITLPDKAHRLELLKHYSSKVKLDPNVNLEELAELTDGYTASDIRDIVQSAHMRVVKEMFEKNLQEPRAINMDDFREVLKVRKPSVNQDMLKAYAAWHEKFKAL | 6 and 2 | 12 | 
9 | MsVps4 Ile89Glu, full length, N-terminally His-tagged (enzyme, Metallosphera sedula, UniProt A4YHC5 1-369, looked up) MSAQVMLEEMARKYAIAAVRADKEGRREDAINNYKKAIEVLTQIVTLYPDMVARNAYEQMINEYKKRLETLNQMVPEGGEETEKAEEDEVMKEKPKVTLNEIVGLEDVKEALKEAVVYPSKRPDLFPLGWPRGILLYGPPGCGKTMIAAAVANELDSEFIHVDAASIMSKWLGEAEKNVAKIFKTARELSKKENKPAIIFIDELDALLASYTSEVGGEARVRNQFLKEMDGLADKNEISKVYVIGATNKPWRLDEPFLRRFQKRIYITLPDKAHRLELLKHYSSKVKLDPNVNLEELAELTDGYTASDIRDIVQSAHMRVVKEMFEKNLQEPRAINMDDFREVLKVRKPSVNQDMLKAYAAWHEKFKAL | 6 | 12 | 
10 | MsVps4 wild type, full length, N-terminally His-tagged (enzyme, Metallosphera sedula, UniProt A4YHC5 1-369, looked up) MSAQVMLEEMARKYAIAAVRADKEGRREDAINNYKKAIEVLTQIVTLYPDMVARNAYEQMINEYKKRLETLNQMVPEGGEETEKAEEDIVMKEKPKVTLNEIVGLEDVKEALKEAVVYPSKRPDLFPLGWPRGILLYGPPGCGKTMIAAAVANELDSEFIHVDAASIMSKWLGEAEKNVAKIFKTARELSKKENKPAIIFIDELDALLASYTSEVGGEARVRNQFLKEMDGLADKNEISKVYVIGATNKPWRLDEPFLRRFQKRIYITLPDKAHRLELLKHYSSKVKLDPNVNLEELAELTDGYTASDIRDIVQSAHMRVVKEMFEKNLQEPRAINMDDFREVLKVRKPSVNQDMLKAYAAWHEKFKAL | 6 and 2 | 12 | 
11 | MsVps4 Glu174Ala Glu176Ala, full length, N-terminally His-tagged (enzyme, Metallosphera sedula, UniProt A4YHC5 1-369, looked up) MSAQVMLEEMARKYAIAAVRADKEGRREDAINNYKKAIEVLTQIVTLYPDMVARNAYEQMINEYKKRLETLNQMVPEGGEETEKAEEDIVMKEKPKVTLNEIVGLEDVKEALKEAVVYPSKRPDLFPLGWPRGILLYGPPGCGKTMIAAAVANELDSEFIHVDAASIMSKWLGAAAKNVAKIFKTARELSKKENKPAIIFIDELDALLASYTSEVGGEARVRNQFLKEMDGLADKNEISKVYVIGATNKPWRLDEPFLRRFQKRIYITLPDKAHRLELLKHYSSKVKLDPNVNLEELAELTDGYTASDIRDIVQSAHMRVVKEMFEKNLQEPRAINMDDFREVLKVRKPSVNQDMLKAYAAWHEKFKAL | 6 and 2 | 12 | 
12 | MsVps4ΔMIT (residues 75 to 369) (domain or fragment, Metallosphera sedula, UniProt A4YHC5 75-369, looked up) VPEGGEETEKAEEDIVMKEKPKVTLNEIVGLEDVKEALKEAVVYPSKRPDLFPLGWPRGILLYGPPGCGKTMIAAAVANELDSEFIHVDAASIMSKWLGEAEKNVAKIFKTARELSKKENKPAIIFIDELDALLASYTSEVGGEARVRNQFLKEMDGLADKNEISKVYVIGATNKPWRLDEPFLRRFQKRIYITLPDKAHRLELLKHYSSKVKLDPNVNLEELAELTDGYTASDIRDIVQSAHMRVVKEMFEKNLQEPRAINMDDFREVLKVRKPSVNQDMLKAYAAWHEKFKAL |  |  | stoichiometry N [5]: 6
